Results: patent US20040142894, “Modulation of cellular proliferation” (published 2004)

Biological target: T1, HiNF-P (enriched chromatographic fraction, HeLa) (Homo sapiens, UniProt Q9BQA5 Q9BQA5:1-517)
T1 sequence: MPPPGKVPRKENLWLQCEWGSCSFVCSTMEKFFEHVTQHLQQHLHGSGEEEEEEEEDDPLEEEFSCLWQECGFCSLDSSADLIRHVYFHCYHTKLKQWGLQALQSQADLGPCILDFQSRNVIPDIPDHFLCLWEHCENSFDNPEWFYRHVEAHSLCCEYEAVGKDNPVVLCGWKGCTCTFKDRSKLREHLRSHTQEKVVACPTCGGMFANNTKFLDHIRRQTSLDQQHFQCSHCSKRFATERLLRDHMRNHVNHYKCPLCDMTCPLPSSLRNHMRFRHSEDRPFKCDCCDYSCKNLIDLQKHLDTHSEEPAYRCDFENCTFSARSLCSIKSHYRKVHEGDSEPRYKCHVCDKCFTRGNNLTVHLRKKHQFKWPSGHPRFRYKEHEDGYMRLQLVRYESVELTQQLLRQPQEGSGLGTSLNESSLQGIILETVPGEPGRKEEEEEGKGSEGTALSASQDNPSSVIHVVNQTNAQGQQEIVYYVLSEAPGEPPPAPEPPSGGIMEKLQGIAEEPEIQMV
Experiment: UV cross-linking, 65 kDa; 100 uM Zn2+ and Mg2+
Conditions: label: 32P-dCTP
Experimental: FIG. 6B is a representation of an autoradiogram showing UV cross-linking of HiNF-P/Site II complexes. Oligonucleotides spanning wild type (WT) and mutant (Pmut) Site II sequences were labeled with BrdUTP and ³²P-dCTP then incubated with a fraction (7.5 μl; 0.4M KCl) containing enriched HiNF-P binding activity. The reaction mixture was exposed to UV light (305 nm) for 60 minutes and then digested with DNase I and MNase. Cross-linked, labeled proteins were analyzed using 10% SDS-PAGE and subjected to autoradiography. Molecular weight makers are shown at the left. The arrow indicates the 65 kDa HiNF-P-DNA complex.
Ultraviolet cross-linking experiments were performed by adapting a method described in Ausubel, F. M. et al. (Current Protocols in Molecular Biology. Greene and Wiley, New York, 1989). A radiolabeled and BrdU-substituted probe was prepared by incubating 20 pmol of partially double-stranded HiNF-P-specific oligonucleotide (top strand: 5′-CGC TTT CGG-3′, SEQ ID NO:13; Bottom strand: 5′-CAAGAGTATCGGACCAGATTGAAAACCGAAAGCG-3′, SEQ ID NO:14) with 1 μl of 50× dNTP/BrdUTP solution (containing 50 μM DATP, 50 μM dGTP, 37.5 μM dTTP and 12.5 μM BrdUTP), 150 μCi α-³²P-dCTP and 1 μl of a solution containing 5 mM DTT and 1 μg/μl BSA, in a total reaction volume of 25 μl. […] Following nuclease digestion, the products were analyzed by 10% SDS-PAGE.

B1: BrdU-substituted Site II probe (dsDNA)
DNA 1: CAAGAGTATCGGACCAGATTGAAAACCGAAAGCG
DNA 2: CGCTTTCGGTTTTCAATCTGGTCCGATACTCTTG
modifications: partial BrdU substitution for T in filled-in strand
binding result: binds
